Source: paper PMC6514982, “Disruption of Structural Disulfides of Coagulation FXIII-B Subunit; Functional Implications for a Rare Bleeding Disorder” (International Journal of Molecular Sciences, 2019)

Target: the molecule itself
Test: native gel or EMSA; non-denaturing Native-PAGE (BN sample buffer), transfer to PVDF, Western blot with mouse anti-human FXIII-B antibody

B1: recombinant wild type FXIII-B subunit (coagulation Factor XIII B subunit) (natural protein, human, UniProt P05160 21-661, looked up)
chain: EEKPCGFPHVENGRIAQYYYTFKSFYFPMSIDKKLSFFCLAGYTTESGRQEEQTTCTTEGWSPEPRCFKKCTKPDLSNGYISDVKLLYKIQENMRYGCASGYKTTGGKDEEVVQCLSDGWSSQPTCRKEHETCLAPELYNGNYSTTQKTFKVKDKVQYECATGYYTAGGKKTEEVECLTYGWSLTPKCTKLKCSSLRLIENGYFHPVKQTYEEGDVVQFFCHENYYLSGSDLIQCYNFGWYPESPVCEGRRNRCPPPPLPINSKIQTHSTTYRHGEIVHIECELNFEIHGSAEIRCEDGKWTEPPKCIEGQEKVACEEPPFIENGAANLHSKIYYNGDKVTYACKSGYLLHGSNEITCNRGKWTLPPECVENNENCKHPPVVMNGAVADGILASYATGSSVEYRCNEYYLLRGSKISRCEQGKWSSPPVCLEPCTVNVDYMNRNNIEMKWKYEGKVLHGDLIDFVCKQGYDLSPLTPLSELSVQCNRGEVKYPLCTRKESKGMCTSPPLIKHGVIISSTVDTYENGSSVEYRCFDHHFLEGSREAYCLDGMWTTPPLCLEPCTLSFTEMEKNNLLLKWDFDNRPHILHGEYIEFICRGDTYPAELYITGSILRMQCDRGQLKYPRCIPRQSTLSYQEPLRT
notes: Coagulation factor XIII B chain, human; F13B cDNA (ORF length 1986 bp) in the pEZ-M01 vector; The whole ORF was expressed; the secreted product was analysed; also called rFXIII-B; rFXIII-B2; source: HEK293T, transiently transfected, secreted into the culture medium
Q: B1 was tested. Which “stoichiometry N” value did it give?
A: Its value is 2.
